# Assay results reported in patent US20090297470.
# T1: Diprotin A (Ile-Pro-Ile)
# T1 chain: IPI
# What was measured:
# [1] = target: T1, Diprotin A (Ile-Pro-Ile)
# [2] = target: recombinant SDF-1α (1-68), full length, 7.97 kDa
protein,measurement,setting,value
"CD26/dipeptidylpeptidase IV (DPP-IV), endogenous enzyme in heart lysates of wild type C57BL/6 mice (protein) MKTPWKVLLGLLGVAALVTIITVPIVLLSKDEAAADSRRTYSLADYLKSTFRVKSYSLWWVSDFEYLYKQENNILLLNAEHGNSSIFLENSTFESFGYHSVSPDRLFVLLEYNYVKQWRHSYTASYNIYDVNKRQLITEEKIPNNTQWITWSPEGHKLAYVWKNDIYVKVEPHLPSHRITSTGEENVIYNGITDWVYEEEVFGAYSALWWSPNNTFLAYAQFNDTGVPLIEYSFYSDESLQYPKTVWIPYPKAGAVNPTVKFFIVNIDSLSSSSSAAPIQIPAPASVARGDHYLCDVVWATEERISLQWLRRIQNYSVMAICDYDKINLTWNCPSEQQHVEMSTTGWVGRFRPAEPHFTSDGSSFYKIISDKDGYKHICHFPKDKKDCTFITKGAWEVISIEALTSDYLYYISNQYKEMPGGRNLYKIQLTDHTNVKCLSCDLNPERCQYYAVSFSKEAKYYQLGCWGPGLPLYTLHRSTDHKELRVLEDNSALDRMLQDVQMPSKKLDFIVLNETRFWYQMILPPHFDKSKKYPLLLDVYAGPCSQKADASFRLNWATYLASTENIIVASFDGRGSGYQGDKIMHAINRRLGTLEVEDQIEAARQFVKMGFVDSKRVAIWGWSYGGYVTSMVLGSGSGVFKCGIAVAPVSRWEYYDSVYTERYMGLPIPEDNLDHYRNSTVMSRAEHFKQVEYLLIHGTADDNVHFQQSAQISKALVDAGVDFQAMWYTDEDHGIASSTAHQHIYSHMSHFLQQCFSLH",proteolytic DPP-IV activity (H-Gly-Pro-AMC) in myocardium and serum 2 days after MI,[1],"Combined application of G-CSF and Diprotin A in wt mice (""G-CSF-DipA mice"") lead to a decreased DPP-IV activity after MI only in the myocardium but not in the serum"
same,mass spectrometry of recombinant SDF-1 incubated with heart lysates (cleavage product peak),[2],lysates derived from wt animals also showed high abundance of a second peak at 7.748 kDa corresponding to N-terminal cleavage of SDF-1α by DPP-IV
